Data as given in patent publication US20220218785A1 (ALPINE IMMUNE SCIENCES, published 2022).
Like-named read-outs stand apart in the source and are kept apart here.

Experiments:
[1] = molecular target: CD80 (ligand of the blocking assay) (UniProt P33681); assay: competition, flow cytometry: CD80 on CHO cells expressing CD28
[2] = molecular target: CD86 labeled with AlexaFluor-647 (UniProt P42081); assay: competition, flow cytometry: labelled CD86 on CHO cells expressing CD28
human CTLA-4 [3] = molecular target: T1, human CTLA-4 (human, UniProt P16410 36-223); assay: flow cytometry, cells with human CTLA-4; protein from CHO
T1 construct: whole, on cells
T1 sequence (P16410 36-223): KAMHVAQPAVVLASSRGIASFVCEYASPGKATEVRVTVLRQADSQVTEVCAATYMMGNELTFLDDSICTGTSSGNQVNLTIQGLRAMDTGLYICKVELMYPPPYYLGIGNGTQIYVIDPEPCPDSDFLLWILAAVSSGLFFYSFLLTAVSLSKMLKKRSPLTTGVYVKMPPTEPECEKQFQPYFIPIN

human ICOS [4] = molecular target: T2, human ICOS (human, UniProt Q9Y6W8 21-199); assay: flow cytometry, cells with human ICOS; protein from CHO
T2 construct: whole, on cells
T2 sequence (looked up): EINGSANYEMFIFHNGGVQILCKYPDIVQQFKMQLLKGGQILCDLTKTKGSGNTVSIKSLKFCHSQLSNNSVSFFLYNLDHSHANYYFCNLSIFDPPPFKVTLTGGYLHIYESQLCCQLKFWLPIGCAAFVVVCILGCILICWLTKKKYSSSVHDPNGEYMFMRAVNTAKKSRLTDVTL

human CD28 (human) = human CD28 (human) (UniProt P10747); assay: flow cytometry, cells with human CD28; protein from CHO
[5] = molecular target: human CD28, full-length, on transfected cells (human) (UniProt P10747); assay: flow cytometry on transfected HEK293 cells
human CD28 [6] = molecular target: T3, human CD28 (human, UniProt P10747 19-220); assay: flow cytometry, cells with human CD28; protein from CHO
T3 construct: whole, on cells

human CTLA-4 [7] = molecular target: T1, human CTLA-4; assay: flow cytometry, cells with human CTLA-4; protein from 293
human ICOS [8] = molecular target: T2, human ICOS; assay: flow cytometry, cells with human ICOS; protein from CHO; remark: listed apart in the source
human CTLA-4 [9] = molecular target: T1, human CTLA-4; assay: flow cytometry, cells with human CTLA-4; protein from CHO; remark: listed apart in the source
human ICOS [10] = molecular target: T2, human ICOS; assay: flow cytometry, cells with human ICOS; protein from CHO; remark: listed apart in the source
human CD28 [11] = molecular target: T3, human CD28; assay: flow cytometry, cells with human CD28; protein from 293
human CTLA-4 [12] = molecular target: T1, human CTLA-4; assay: flow cytometry, cells with human CTLA-4; protein from CHO; remark: listed apart in the source
human ICOS [13] = molecular target: T2, human ICOS; assay: flow cytometry, cells with human ICOS; protein from 293
human CD28 [14] = molecular target: T3, human CD28; assay: flow cytometry, cells with human CD28; protein from CHO; remark: listed apart in the source
[15] = molecular target: T4, ICOSL labeled with AlexaFluor-647 (UniProt O75144 19-256, limits assumed, labeled with AlexaFluor-647); assay: competition, flow cytometry: labelled ICOSL on CHO cells expressing ICOS
T4 sequence (looked up): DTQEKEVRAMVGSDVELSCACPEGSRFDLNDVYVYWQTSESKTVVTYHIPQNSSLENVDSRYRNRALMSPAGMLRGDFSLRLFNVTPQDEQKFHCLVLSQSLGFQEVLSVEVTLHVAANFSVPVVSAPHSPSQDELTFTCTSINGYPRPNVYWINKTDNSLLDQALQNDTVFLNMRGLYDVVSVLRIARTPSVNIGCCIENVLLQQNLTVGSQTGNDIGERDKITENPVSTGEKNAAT

CD80 (ligand of the blocking assay), sequence (P33681 35-242 limits assumed): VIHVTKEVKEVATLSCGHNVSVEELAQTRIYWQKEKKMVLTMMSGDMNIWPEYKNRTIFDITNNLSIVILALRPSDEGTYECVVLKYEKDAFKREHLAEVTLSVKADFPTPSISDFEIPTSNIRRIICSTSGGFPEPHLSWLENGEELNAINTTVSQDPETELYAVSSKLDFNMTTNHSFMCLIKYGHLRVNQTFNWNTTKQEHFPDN
CD86 labeled with AlexaFluor-647, sequence (P42081 24-247 limits assumed): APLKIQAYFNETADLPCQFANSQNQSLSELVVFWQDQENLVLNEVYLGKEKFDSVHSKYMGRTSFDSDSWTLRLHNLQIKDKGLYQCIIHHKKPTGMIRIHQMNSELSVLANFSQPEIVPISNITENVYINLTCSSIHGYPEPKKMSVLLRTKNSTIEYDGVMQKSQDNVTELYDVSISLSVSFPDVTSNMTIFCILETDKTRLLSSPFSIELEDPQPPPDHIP

MFI (ΔWT) (human CD28 [6]) [fold vs WT] | MFI (ΔWT) (human CTLA-4 [7]) [fold vs WT] | MFI (ΔWT) (human ICOS [8]) [fold vs WT] | MFI (ΔWT) (human CTLA-4 [9]) [fold vs WT] | MFI (ΔWT) (human ICOS [10]) [fold vs WT] | MFI (ΔWT) (human CD28 [11]) [fold vs WT] | MFI (ΔWT) (human CTLA-4 [12]) [fold vs WT] | MFI (ΔWT) (human ICOS [13]) [fold vs WT] | MFI (ΔWT) (human CD28 [14]) [fold vs WT] | also measured | Molecule
– | – | – | – | – | – | – | – | – | IC50 [1]: 2.5 nM; IC50 [2]: 2.8 nM | belatacept (Fc fusion)
– | – | – | – | – | – | – | – | – | MFI (human CTLA-4 [3]): 368000 MFI; MFI (ΔWT) (human CTLA-4 [3]): 48.6 fold vs WT; MFI (human ICOS [4]): 143000 MFI; MFI (human CD28 (human)): 94200 MFI; MFI (ΔWT) (human CD28 (human)): 54.5 fold vs WT | ICOSL ECD Truncation #8 with N207G/L208G and N52H/N57Y/Q100R/C198R and Y151H (from UniProt O75144 19-224) (Fc fusion)
– | – | – | – | – | – | – | – | – | MFI [5]: 6000 MFI | variant ICOSL ECD-Fc M10I, S13G, N52H, N57Y, D77G, V110A, H129P, I143V, F172S, V193M, C198R (Fc fusion)
39.7 | 0.7 | 1.3 | 49.8 | 0.7 | 4.1 | 0.7 | 0.6 | 3.6 | – | ICOSL ECD Truncation #4 with N52H/N57Y/Q100R/F172S, Fc fusion (Fc fusion) DTQEKEVRAMVGSDVELSCACPEGSRFDLNDVYVYWQTSESKTVVTYHIPQHSSLEYVDSRYRNRALMSPAGMLRGDFSLRLFNVTPQDEQKFHCLVLSRSLGFQEVLSVEVTLHVAANFSVPVVSAPHSPSQDELTFTCTSINGYPRPNVYWINKTDNSLLDQALQNDTVSLNMRGLYDVVSVLRIARTPSVNIGCCIENVLLQQNGGGGSGGGGSEPKSSDKTHTCPPCPAPEAEGAPSVFLFPPKPKDTLMISRTPEVTCVVVDVSHEDPEVKFNWYVDGVEVHNAKTKPREEQYNSTYRVVSVLTVLHQDWLNGKEYKCKVSNKALPAPIEKTISKAKGQPREPQVYTLPPSREEMTKNQVSLTCLVKGFYPSDIAVEWESNGQPENNYKTTPPVLDSDGSFFLYSKLTVDKSRWQQGNVFSCSVMHEALHNHYTQKSLSLSPG
– | – | – | – | – | – | – | – | – | IC50 [15]: 23.3 nM | prezalumab (AMG-557; anti-ICOSL, Creative Biolabs) (antibody, V domains shown) VH: EVQLVESGGGLVQPGGSLRLSCAASGFTFSSYWMSWVRQAPGKGLEWVAYIKQDGNEKYYVDSVKGRFTISRDNAKNSLYLQMNSLRAEDTAVYYCAREGILWFGDLPTFWGQGTLVTVSS VL: DIQMTQSPSSLSASVGDRVTITCRASQGISNWLAWYQQKPEKAPKSLIYAASSLQSGVPSRFSGSGSGTDFTLTISSLQPEDFATYYCQQYDSYPRTFGQGTKVEIK
63.9 | 0.7 | 1.4 | 42.6 | 1.1 | 3.6 | 0.7 | 1.4 | 4.1 | – | ICOSL ECD with N52H/N57Y/Q100R/F172S, Fc fusion with (G4S)2 linker (Fc fusion, also called ICOSCL ECD with N52H/N57Y/Q100R/F1725) DTQEKEVRAMVGSDVELSCACPEGSRFDLNDVYVYWQTSESKTVVTYHIPQHSSLEYVDSRYRNRALMSPAGMLRGDFSLRLFNVTPQDEQKFHCLVLSRSLGFQEVLSVEVTLHVAANFSVPVVSAPHSPSQDELTFTCTSINGYPRPNVYWINKTDNSLLDQALQNDTVSLNMRGLYDVVSVLRIARTPSVNIGCCIENVLLQQNLTVGSQTGNDIGERDKITENPVSTGEKNAATGGGGSGGGGSEPKSSDKTHTCPPCPAPEAEGAPSVFLFPPKPKDTLMISRTPEVTCVVVDVSHEDPEVKFNWYVDGVEVHNAKTKPREEQYNSTYRVVSVLTVLHQDWLNGKEYKCKVSNKALPAPIEKTISKAKGQPREPQVYTLPPSREEMTKNQVSLTCLVKGFYPSDIAVEWESNGQPENNYKTTPPVLDSDGSFFLYSKLTVDKSRWQQGNVFSCSVMHEALHNHYTQKSLSLSPG
– | 0.8 | – | – | 0.7 | 3.4 | 0.7 | 0.7 | 3.7 | – | ICOSL ECD Truncation #7 with N52H/N57Y/Q100R/F172S, Fc fusion (Fc fusion) DTQEKEVRAMVGSDVELSCACPEGSRFDLNDVYVYWQTSESKTVVTYHIPQHSSLEYVDSRYRNRALMSPAGMLRGDFSLRLFNVTPQDEQKFHCLVLSRSLGFQEVLSVEVTLHVAANFSVPVVSAPHSPSQDELTFTCTSINGYPRPNVYWINKTDNSLLDQALQNDTVSLNMRGLYDVVSVLRIARTPSVNIGCCIENGGGGSGGGGSEPKSSDKTHTCPPCPAPEAEGAPSVFLFPPKPKDTLMISRTPEVTCVVVDVSHEDPEVKFNWYVDGVEVHNAKTKPREEQYNSTYRVVSVLTVLHQDWLNGKEYKCKVSNKALPAPIEKTISKAKGQPREPQVYTLPPSREEMTKNQVSLTCLVKGFYPSDIAVEWESNGQPENNYKTTPPVLDSDGSFFLYSKLTVDKSRWQQGNVFSCSVMHEALHNHYTQKSLSLSPG
49 | 0.8 | 1.2 | 27 | 0.7 | 4.7 | 0.7 | 0.8 | 4.9 | – | ICOSL IgV with N52H/N57Y/Q100R, Fc fusion with (G4S)2 linker (Fc fusion, also called ICOSCL IgV with N52H/N57Y/Q100R) DTQEKEVRAMVGSDVELSCACPEGSRFDLNDVYVYWQTSESKTVVTYHIPQHSSLEYVDSRYRNRALMSPAGMLRGDFSLRLFNVTPQDEQKFHCLVLSRSLGFQEVLSVEVTLHVAANFSVGGGGSGGGGSEPKSSDKTHTCPPCPAPEAEGAPSVFLFPPKPKDTLMISRTPEVTCVVVDVSHEDPEVKFNWYVDGVEVHNAKTKPREEQYNSTYRVVSVLTVLHQDWLNGKEYKCKVSNKALPAPIEKTISKAKGQPREPQVYTLPPSREEMTKNQVSLTCLVKGFYPSDIAVEWESNGQPENNYKTTPPVLDSDGSFFLYSKLTVDKSRWQQGNVFSCSVMHEALHNHYTQKSLSLSPG
– | 0.7 | – | – | 0.7 | – | 0.7 | – | – | MFI (human CTLA-4 [7]): 8720 MFI; MFI (human ICOS [10]): 7700 MFI; MFI (human CTLA-4 [12]): 8750 MFI | ICOSL ECD with N52H/N57Y/Q100R/C198R, Fc C220S/L234A/L235E/G237A (SEQ ID NO: 40) (Fc fusion, not shown: small tags and cut ends) chain (part 1 of 2): DTQEKEVRAMVGSDVELSCACPEGSRFDLNDVYVYWQTSESKTVVTYHIPQHSSLEYVDSRYRNRALMSPAGMLRGDFSLRLFNVTPQDEQKFHCLVLSRSLGFQEVLSVEVTLHVAANFSVPVVSAPHSPSQDELTFTCTSINGYPRPNVYWINKTDNSLLDQALQNDTVFLNMRGLYDVVSVLRIARTPSVNIGCRIENVLLQQNLTVGSQTGNDIGERDKITENPVSTGEKNAAT chain (part 2 of 2): EPKSSDKTHTCPPCPAPEAEGAPSVFLFPPKPKDTLMISRTPEVTCVVVDVSHEDPEVKFNWYVDGVEVHNAKTKPREEQYNSTYRVVSVLTVLHQDWLNGKEYKCKVSNKALPAPIEKTISKAKGQPREPQVYTLPPSREEMTKNQVSLTCLVKGFYPSDIAVEWESNGQPENNYKTTPPVLDSDGSFFLYSKLTVDKSRWQQGNVFSCSVMHEALHNHYTQKSLSLSPGK
